Columns and labels:
Assay type in all cases: biochemical
[1] = Metabolism of buparvaquone by P450 aluC09 and mutants; settings: percent of substrate being converted; 0.125 mg/ml, 27° C., 16-20 hours; [CYP] per enzyme as in Table 8
Experimental: (§1) Lyophilised material of mutants of CYP450aluC09, ferredoxinaluF03 and ferredoxin reductaseSCF15A was made as described in examples 3 and 4 and suspended in water (0.5 mL per vial) and biocatalysis was performed at 27° C. in the following conditions: 50 mM potassium phosphate pH 7.4, 5 mM MgCl2, 0.125 mg/ml substrate compound such as diclofenac (Sigma-Aldrich, UK), Aceclofenac (Tokyo Chemical Industry UK Ltd, UK), Indomethacin (Sigma-Aldrich, UK), Flufenamic acid (Sigma-Aldrich, UK), Napropamide (Sigma-Aldrich, UK), celecoxib (LC Laboratories, USA), valsartan (Tokyo Chemical Industry UK Ltd, UK), ruxolitinib (LC Laboratories, USA), 4-pyrrolidylacetophenone (Sigma-Aldrich, UK), tofacitinib (LC Laboratories, USA), bosentan (CarboSynth Ltd, UK), buparvaquone (MedChemtronica, Sweden), BIRB796 (Stratech Scientific Limited, UK), epothilone B (LC Laboratories, USA), ritonavir (Tokyo Chemical Industry UK Ltd, UK) or tivantinib (MedChemtronica, Sweden), P450AluC09 (concentration as in Table 8), 5 mM G6P, 1 mM NADP, 2 UN/ml G6PDH in a final volume of 100 μL. After 16-20 hours at 200 rpm (5 cm orbital shaker, Kuhner AG, Switzerland), reactions were extracted with an equal volume of acetonitrile, centrifuged to remove precipitated proteins and conversion assessed by UPLC-MS analysis.
(§2) However, of particular note when considering P450 concentration are the results for mutants M12, M20 and M34, as well as the deleterious impact on the range of substrate utility in mutants M39 and M40.

[2] = Metabolism of tivantinib by P450 aluC09 and mutants; settings: percent of substrate being converted; 0.125 mg/ml, 27° C., 16-20 hours; [CYP] per enzyme as in Table 8
Experimental: as §1, §2

[3] = Hydroxylation of diclofenac catalysed by cytochrome P450 aluC09 and mutants (UPLC-PDA-MS); settings: for 4′,5-dihydroxy-diclofenac 1.38 mins / 4′-hydroxy-diclofenac (1) 1.62 mins / 5-hydroxy-diclofenac (2) 1.58 mins / Diclofenac (Substrate) 1.81 mins: % by UV peak area at 275 nm, 0.125 mg/ml substrate, 27° C., 16-20 hours; for Hydroxylated Ratio hydroxy 1:hydroxy 2: diclofenac, ratio of UV peak areas at 275nm
Experimental: as §1
(§3) UPLC data was obtained as follows:
(§4) Column: Acquity UPLC BEH Shield RP18 1.7 μm 2.1 mm i.d. 50 mm length
(§5) Solvents: H2O, B: Acetonitrile, both with 0.1% Formic acid
(§6) Detector: Waters Acquity UPLC PDA (UV-Vis detection) and Waters Acquity UPLC QDA (MS)
Illustrative results for the hydroxylation of diclofenac by CYP450aluC09 and selected T291x mutants are summarised below in Table 3 with representative chromatograms resented in FIG. 3a-c; retention times: diclofenac 1.85-1.88 minutes, 5-hydroxydiclofenac 1.60-1.63 minutes, 4′-hydroxydiclofenac 1.65-1.68 minutes, 4′,5-dihydroxydiclofenac 1.40-1.42 minutes. The chromatographic retention times and mass spectra coincided with those of authentic samples.

[4] = Hydroxylation of aceclofenac catalysed by cytochrome P450 aluC09 and mutants; settings: for Aceclofenac (Substrate) (1.80 mins) / Dihydroxy-Aceclofenac (1.42 mins) / Hydroxy-Aceclofenac (1) (1.64 min) / Hydroxy-Aceclofenac (2) (1.60 min): % by UV peak area at 275 nm, 0.125 mg/ml substrate, 27° C., 16-20 hours; for Hydroxylated Ratio 2:1: aceclofenac, ratio of UV peak areas at 275 nm
Experimental: as §1, §3, §4, §5, §6
Chromatograms are provided in FIGS. 5a-c; aceclofenac elutes at 1.80 minutes, hydroxy-aceclofenac acid 1 elutes at 1.64 minutes, hydroxy-aceclofenac acid 2 elutes at 1.60 minutes and dihydroxy-aceclofenac elutes at 1.42 minutes.

[5] = Metabolism of celecoxib by P450 aluC09 and mutants; settings: percent of substrate being converted; 0.125 mg/ml, 27° C., 16-20 hours; [CYP] per enzyme as in Table 8
Experimental: as §1, §2

[6] = Metabolism of ritonavir by P450 aluC09 and mutants; settings: percent of substrate being converted; 0.125 mg/ml, 27° C., 16-20 hours; [CYP] per enzyme as in Table 8
Experimental: as §1, §2

[7] = Metabolism of BIRB796 by P450 aluC09 and mutants; settings: percent of substrate being converted; 0.125 mg/ml, 27° C., 16-20 hours; [CYP] per enzyme as in Table 8
Experimental: as §1, §2

[8] = Hydroxylation / de-N-ethylation of napropamide catalysed by cytochrome P450 aluC09 and mutants; settings: for Desethyl Napropamide (1.62 min) / Desethyl-hydroxy-Napropamide (1.41 min) / Hydroxy-Napropamide (1) (1.53 min) / Hydroxy-Napropamide (2), (1.52 min) / M-2Da (unidentified) (1.89 min) / Napropamide (substrate): % by UV peak area at 275 nm, 0.125 mg/ml substrate, 27° C., 16-20 hours; for Hydroxylated Ratio 2:1: napropamide, ratio of UV peak areas
Experimental: as §1, §3, §4, §5, §6
Napropamide elutes at 1.76 minutes, unidentified metabolite (−2 Da) elutes at 1.90 minutes, desethyl-napropamide elutes at 1.62 minutes, hydroxy-napropamide 1 elutes at 1.53 minutes and hydroxy-napropamide 2 elutes at 1.52 minutes and the desethyl-hydroxy-napropamide product elutes at 1.41 minutes.

[9] = Metabolism of ruxolitinib by P450 aluC09 and mutants; settings: percent of substrate being converted; 0.125 mg/ml, 27° C., 16-20 hours; [CYP] per enzyme as in Table 8
Experimental: as §1, §2

[10] = O-demethylation of indomethacin catalysed by cytochrome P450 aluC09 and mutants; settings: % by UV peak area at 275 nm; 0.125 mg/ml substrate, 27° C., 16-20 hours
Experimental: as §1, §3, §4, §5, §6

[11] = Metabolism of tofacitinib by P450 aluC09 and mutants; settings: percent of substrate being converted; 0.125 mg/ml, 27° C., 16-20 hours; [CYP] per enzyme as in Table 8
Experimental: as §1, §2

[12] = Hydroxylation of flufenamic acid catalysed by cytochrome P450 aluC09 and mutants; settings: for Flufenamic Acid (Substrate) 1.93 mins / Hydroxy-Flufenamic Acid (1) 1.69 mins / Hydroxy-Flufenamic Acid (2) 1.65 mins: % by UV peak area at 275 nm, 0.125 mg/ml substrate, 27° C., 16-20 hours; for Hydroxylated Ratio 1:2: flufenamic acid, ratio of UV peak areas at 275 nm
Experimental: as §1, §3, §4, §5, §6
Flufenamic acid elutes at 1.93 minutes, hydroxy-flufenamic acid 1 elutes at 1.68 minutes and hydroxy-flufenamic acid 2 elutes at 1.65 minutes.

[13] = Metabolism of 4-pyrrolidylacetophenone by P450 aluC09 and mutants; settings: percent of substrate being converted; 0.125 mg/ml, 27° C., 16-20 hours; [CYP] per enzyme as in Table 8
Experimental: as §1, §2

[14] = Metabolism of epothilone B by P450 aluC09 and mutants; settings: percent of substrate being converted; 0.125 mg/ml, 27° C., 16-20 hours; [CYP] per enzyme as in Table 8
Experimental: as §1, §2

[15] = Metabolism of valsartan by P450 aluC09 and mutants; settings: percent of substrate being converted; 0.125 mg/ml, 27° C., 16-20 hours; [CYP] per enzyme as in Table 8
Experimental: as §1, §2

B1: aluC09M19: cytochrome P450 aluC09 mutant T291A; amino acid sequence SEQ ID NO: 24 (protein, listed as Amycolatopsis lurida)
chain: MTDVEETTATLPLARKCPFSPPPEYERLRRESPVSRVGLPSGQTAWALTRLEDIREMLSSPHFSSDRQSPSFPLMVARQIRREDKPFRPSLIAMDPPEHSRARRDVVGEFTVKRMKALQPRIQQIVDEHLDALLAGPKPADLVQALSLPVPSLVICELLGVPYSDHEFFQSCSSRMLSREVTAEERMTAFEQLENYLDELVTKKEANATEDDLLGRQILKQRETGEADHGELVGLAFLLLIAGHETTANMISLGTVTLLENPDQLAKIKADPGKTLAAIEELLRVFTIAEAATSRFATADVEIGGTLIRAGEGVVGLSNAGNHDPDGFENPDTFDIERGARHHVAFGFGVHQCLGQNLARLELQIVFDTLFRRVPGLRIAVPVDELPFKHDSTIYGLHALPVTW
- % conversions (avg) Buparvaquone [1]: 17.1%
- % conversions (avg) Tivantinib [2]: 26.1%
- 4′,5-dihydroxy-diclofenac 1.38 mins [3]: 2.4%
- 4′-hydroxy-diclofenac (1) 1.62 mins [3]: 50.0%
- 5-hydroxy-diclofenac (2) 1.58 mins [3]: 14.2%
- Diclofenac (Substrate) 1.81 mins [3]: 34.8%
- Hydroxylated Ratio hydroxy 1:hydroxy 2 [3]: 3.5
- Aceclofenac (Substrate) (1.80 mins) [4]: 6.7%
- Dihydroxy-Aceclofenac (1.42 mins) [4]: 48.3%
- Hydroxy-Aceclofenac (1) (1.64 min) [4]: 6.5%
- Hydroxy-Aceclofenac (2) (1.60 min) [4]: 38.5%
- Hydroxylated Ratio 2:1 [4]: 5.9
- % conversions (avg) Celecoxib [5]: 4.5%
- % conversions (avg) Ritonavir [6]: 65.4%
- % conversions (avg) BIRB796 [7]: 16.6%
- Desethyl Napropamide (1.62 min) [8]: 50.1%
- Desethyl-hydroxy-Napropamide (1.41 min) [8]: 4.9%
- Hydroxy-Napropamide (1) (1.53 min) [8]: 2.3%
- Hydroxy-Napropamide (2), (1.52 min) [8]: 3.9%
- M-2Da (unidentified) (1.89 min) [8]: 6.1%
- Napropamide (substrate) [8]: 34.3%
- Hydroxylated Ratio 2:1 [8]: 1.7
- % conversions (avg) Ruxolitinib [9]: 50.8%
- Indomethacin (1.74 mins) [10]: 93.5%
- O-demethyl-Indomethacin (1.52 mins) [10]: 6.5%
- % conversions (avg) Tofacitinib [11]: 0%
- Flufenamic Acid (Substrate) 1.93 mins [12]: 90.4%
- Hydroxy-Flufenamic Acid (1) 1.69 mins [12]: 5.8%
- Hydroxy-Flufenamic Acid (2) 1.65 mins [12]: 3.8%
- Hydroxylated Ratio 1:2 [12]: 1.5
- % conversions (avg) 4-pyrrolidylacetophenone [13]: 0.7%
- % conversions (avg) Epothilone B [14]: 4.5%

B2: aluC09M20: cytochrome P450 aluC09 mutant T291V; amino acid sequence SEQ ID NO: 28 (protein, listed as Amycolatopsis lurida)
chain: MTDVEETTATLPLARKCPFSPPPEYERLRRESPVSRVGLPSGQTAWALTRLEDIREMLSSPHFSSDRQSPSFPLMVARQIRREDKPFRPSLIAMDPPEHSRARRDVVGEFTVKRMKALQPRIQQIVDEHLDALLAGPKPADLVQALSLPVPSLVICELLGVPYSDHEFFQSCSSRMLSREVTAEERMTAFEQLENYLDELVTKKEANATEDDLLGRQILKQRETGEADHGELVGLAFLLLIAGHETTANMISLGTVTLLENPDQLAKIKADPGKTLAAIEELLRVFTIAEVATSRFATADVEIGGTLIRAGEGVVGLSNAGNHDPDGFENPDTFDIERGARHHVAFGFGVHQCLGQNLARLELQIVFDTLFRRVPGLRIAVPVDELPFKHDSTIYGLHALPVTW
- % conversions (avg) Buparvaquone [1]: 15.4%
- % conversions (avg) Tivantinib [2]: 22.2%
- 4′,5-dihydroxy-diclofenac 1.38 mins [3]: 3.1%
- 4′-hydroxy-diclofenac (1) 1.62 mins [3]: 50.1%
- 5-hydroxy-diclofenac (2) 1.58 mins [3]: 13.7%
- Diclofenac (Substrate) 1.81 mins [3]: 34.8%
- Hydroxylated Ratio hydroxy 1:hydroxy 2 [3]: 3.7
- Aceclofenac (Substrate) (1.80 mins) [4]: 4.2%
- Dihydroxy-Aceclofenac (1.42 mins) [4]: 35.1%
- Hydroxy-Aceclofenac (1) (1.64 min) [4]: 33.1%
- Hydroxy-Aceclofenac (2) (1.60 min) [4]: 27.6%
- Hydroxylated Ratio 2:1 [4]: 0.8
- % conversions (avg) Celecoxib [5]: 2.2%
- % conversions (avg) Ritonavir [6]: 100%
- % conversions (avg) BIRB796 [7]: 22.4%
- Desethyl Napropamide (1.62 min) [8]: 56.2%
- Desethyl-hydroxy-Napropamide (1.41 min) [8]: 7.6%
- Hydroxy-Napropamide (1) (1.53 min) [8]: 2.1%
- Hydroxy-Napropamide (2), (1.52 min) [8]: 6.1%
- M-2Da (unidentified) (1.89 min) [8]: 4.7%
- Napropamide (substrate) [8]: 25.3%
- Hydroxylated Ratio 2:1 [8]: 2.9
- % conversions (avg) Ruxolitinib [9]: 70.7%
- % conversions (avg) Valsartan [15]: 13.1%
- Indomethacin (1.74 mins) [10]: 89.2%
- O-demethyl-Indomethacin (1.52 mins) [10]: 10.8%
- % conversions (avg) Tofacitinib [11]: 4.5%
- Flufenamic Acid (Substrate) 1.93 mins [12]: 93.6%
- Hydroxy-Flufenamic Acid (1) 1.69 mins [12]: 4.4%
- Hydroxy-Flufenamic Acid (2) 1.65 mins [12]: 2.0%
- Hydroxylated Ratio 1:2 [12]: 2.2
- % conversions (avg) Epothilone B [14]: 21.1%
